Measurements published in the RNAGym collection of RNA variant scans (doi:10.1073/pnas.2313332121).
Fewer inactive variants are shown than the library holds.

B1: TPR 5TU (parent)
chain: GGAUCUUCUCGAUCUAACAAAAAAGACAAAUCUGCCACAAAGCUUGAGAGCAUCUUCGGAUGCAGAGGCGGCAGCCUUCGGUGGCGCGAUAGCGCCAACGUUCUCAACUAUGACACGCAAAACGCGUGCUCCGUUGAAUGGAGUUUAUCAUG

Variants of: B1
Assay: polymerase ribozyme fitness, log enrichment relative to wild type (log ratio); higher = more active; in vitro selection for triplet polymerase activity
In short: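 For each subunit of a heterodimeric triplet polymerase ribozyme, a mutant library was built by PCR and transcribed, then taken through a single in vitro selection round in triplicate. Selection involved annealing to a biotinylated primer, the partner subunit and triplets, incubation frozen at −7 °C, gel excision of extended constructs, capture on streptavidin beads and RT-PCR. Genotypes were retained after Illumina sequencing of inputs and outputs only with ≥10 input reads and ≥1 read in each output. Fitness is defined as the logarithm of a genotype's enrichment relative to wild-type enrichment, using inverse-variance-weighted averages across replicates, with the logarithm taken to base 2.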
For GGAUCUUCUCGAUCUAACAAAAAUGACCAAUCAGCCACAAAGCUUGAGAGCAUCUUCGAAUGCAGAGGCGGCAGCCUUCGGUGGCGCGAUAGCGCCAACGUUCUCAACUAUGACACGCAAAACGCGUGCUCCGUUGAAUUGAGGUGAUCAUG [A24U A28C U33A G59A G140U U144G U146G], the “polymerase ribozyme fitness (log ratio)” value was no more than -4.2.
For GGAUCUUCUCGAUCUAACAAAAAUGACAAAUCUGCCACAAGGCUUGAGAGCAGCUUCGGAUGCAGAGGCGGCAGCCUUCGGUGGCGCGAUAGCGCCAACGUUCUCAACUAUGACACGCAAAACCCGUGCUUCGUUGAAUGGAGUUUAUCAUG [A24U A41G U53G G124C C131U], the “polymerase ribozyme fitness (log ratio)” value was -1.4.
With GGAUCUUCUCGAUCUAACAAAAAUGACUAAUCAGCCACAACGCUUGAGAGCAUCGUCGGAUGCAGAGGCGGCAGCCUUCGGUGGCGCGAUAGCGCUAACGUUCUCAACUAUGACACGCAAAACGCGUGCUCCGUUGAAUGGAGUUUAUCAUG [A24U A28U U33A A41C U55G C96U] the “polymerase ribozyme fitness (log ratio)” value was no more than -4.2.
In the case of GGAUCUUCUCGAUCUAACAAAAAUGUCAAAUCUGCCACAAAGCUUGACAGCAUCUUCGGAUGCAGAGGCGGCAGCCUUCGGUAGCGCGAUAGCGCCAACGUUCUCAACUAUGACUUGCAAAACGCGUGCUCCGUUGAAUGGAGUUUAUCAUG [A24U A26U G48C G83A A115U C116U], the “polymerase ribozyme fitness (log ratio)” value is reported as no more than -4.2.
For GGAUCUUCUCGAUCUAACAAAAAGGACAAAUCUGCCACAAAGCUUGAGAGCAUCUUCGGACGCAGAGGCGGCAGCCUUCGGGGGCGCGAUAGCGUCAACGUUCUCAACUAUGACACGCAAAACGCGUGCUCCGUUGAAUGGAGUUUAUCAUG [A24G U61C U82G C95U], the “polymerase ribozyme fitness (log ratio)” value was no more than -4.2.
With GGAUCUUCUCGAUCUAACAAAAAUGACCAAUCUGCCACAAAGCUUGAGAGCAUCUUCGCAUGCAGAGGCGGCAGCCUUCGGUGGCCCGAUAGCGCCAACGUUCUCAACUAUGACACGCAAAUCGCGUGCUCCCUUGAAUGGAGUUUAUCAUG [A24U A28C G59C G86C A122U G133C] the “polymerase ribozyme fitness (log ratio)” value was no more than -4.2.
For GGAUCUUCUCGAUCUAACAAAAAGGACAAAACUGCCAGAAAGCUUGAGAGCAACUUAGGAUGCAGAGGCGGCAGCCCUCGGUAGCGCGAUAGCGCCAACGUUCUCAACUAUGACACGCAAAACGCGUGCUCCGUUGCAUGGAGUUUAUCAUG [A24G U31A C38G U53A C57A U77C G83A A137C], the “polymerase ribozyme fitness (log ratio)” value was no more than -4.2.
With GGAUCUUCUCGAUCUAACAAAAAGGACAAAUCUGCCACAAAGCUUGAGAGCAUCUUCGGAUGCAGAGGCGGCAGCCUUCGGUGGCGCGAUAGCGCCAACGUUCUCAACUAUGACACGCAAAACGCGUGCUCCGUUGAAUGGAGUAUAUCAUG [A24G U145A] the “polymerase ribozyme fitness (log ratio)” value was -3.78.
For GGAUCUUCUCGAUCUAACAAAAAUGACAAAUCUGCCACAACGCUACAGCGCAUCUUCGGAUGCAGAGGCGGCAGCCUUCGGUGGCACGAUAGCGCCAACGUUCUCAACUAUGACACGCAAAACGCGUGCUCCGUUGAAUGGAGUUUAUCAUG [A24U A41C U45A G46C A49C G86A], the “polymerase ribozyme fitness (log ratio)” value was -3.99.
For GGAUCUUCUCGAUCUAACAAAAAUGCGAAAUCUGCGACAAAGCUUGAGAGCAUCUUCGGAUGCAGAGGCGGCAGCCUUCGAUGGCGCGAUAGCGCCAGCGUUCUCAACUAUGACACGCAAAACGCGUGCUCCGUUUAAGGGCGUUUAUCAUG [A24U A26C C27G C36G G81A A98G G136U U139G A142C], the “polymerase ribozyme fitness (log ratio)” value was no more than -4.2.
In the case of GGAUCUUCUCGAUCUAACAAAAAGGACAAAUCUGCCACAAAGCUUGAGAGCAACUUCGGAAGCAGAGGCGGCAGCCUUCGGUGCCGCGAUAGCGCCAACGUUCUCAACUAUGACACGCAAAACGUGUGCUCCGUUGAAUGGAGUUUAUCAUG [A24G U53A U61A G84C C125U], the “polymerase ribozyme fitness (log ratio)” value is reported as no more than -4.2.
With GGAUCUUCUCGAUCUAACAAAAAUGACGAAUCUGCUACAAAGCUUGAGAGCAUCUUCGGAUACAGAGGCGGCAGCCUGCGGUAGCGCGAUGGCGCCAACGUUCUCAACUAUGACACGCAAAACGCGUCCUCCGUUGAAUGGAGUUUAUCAUG [A24U A28G C36U G62A U78G G83A A91G G128C] the “polymerase ribozyme fitness (log ratio)” value was -3.66.
With GGAUCUUCUCGAUCUAACAAAAAUGUCAAAUCUGCCACAAAGCUUGAGAGCAUUUUCGGAUGCAGAGGCGGCAGCCUUCGGUGUCGCGAUAGCGCCAACGUUCUCAACUAUGACACGCAAAACGCGAGCUCCGUUGAAUGGAGUUUAUCAUG [A24U A26U C54U G84U U127A] the “polymerase ribozyme fitness (log ratio)” value was no more than -4.2.
With GGAUCUUCUCGAUCUAACAAAAAUGACAGAUCUGCCACAAAGCUUGAGAGCGUCUUCGGAUGCAGAGGCGGCAGCCUUCGGUGGCGCGAUUGCGCCAACGUUCUCAACUAUGACACGCAAAACGCUUGCUCCGUUGAAUGGAGGUUAUCAUG [A24U A29G A52G A91U G126U U144G] the “polymerase ribozyme fitness (log ratio)” value was no more than -4.2.
With GGAUCUUCUCGAUCUAACAAAAAUGACAAAUCUGCCACCAAGCUUGAGAGCAUCUUCGGAUGCAGAGGCGGCAGCCUUCGGUGGCGCGAUAUCGCCAACGUUCUCAACUAUGACACGCAAAACGCGUGCUCCGUUGAAUGGAGGUUAGCAUG [A24U A39C G92U U144G U148G] the “polymerase ribozyme fitness (log ratio)” value was no more than -4.2.
With GGAUCUUCUCGAUCUAACAAAAAUGACAAAUCUGCCACAAGGCUUGAGAGCAUCUUCGGAUGCAGAGGAGGCAGCCUUCGGUGGCGCGAUAGCGCCAAGGUUCUCAACUAUGACACGCAAAACGCGUGCUCCGUUGAAUGGAGUUUAUCAUG [A24U A41G C69A C99G] the “polymerase ribozyme fitness (log ratio)” value was -2.54.
With GGAUCUUCUCGAUCUAACAAAAAUGACAACUCUGCCACAAAGCUUGAGAGCAUCUUCGGAUGCAGAGGCGGCAGCCUUCGGUGGCGCGAUAGGGCCAACGUUCUCAACUAUGACACGAAAAACGCGUGCUCCGUUGAAUGGAGUUUAUCAUG [A24U A30C C93G C118A] the “polymerase ribozyme fitness (log ratio)” value was no more than -4.2.
With GGAUCUUCUCGAUCUAACAAAAAUGACAAAUCUGCCACAAUGCUUGAGAGCAUCUUCGGAUGCAGAGGCGGCAGCCUUCGGUGGCUCGAUAGCGCCAACGUUCUCAACUAUGACACGCAAAACGCGUGCUCCGUUGAAUGGAGUUUAUCAUG [A24U A41U G86U] the “polymerase ribozyme fitness (log ratio)” value was -3.62.
For GGAUCUUCUCGAUCUAACAAAAAUGACAAAUCUGCCACACAGCUUGAGCGCAUCUUCGGAUGCAGAGGCGGGAGCCUUCGGUUGCGGGAUAGCGCCAACGUUCUCAACUAUGACACGCAAAACGCGUGCUCCGUUGAAGGGAGCUUAUCAGG [A24U A40C A49C C72G G83U C87G U139G U144C U151G], the “polymerase ribozyme fitness (log ratio)” value was no more than -4.2.
